Measurements: patent US20030131383A1 (INTERLINK BIOTECHNOLOGIES, published 2003)
No end group written: not given here.

Legend:
Assay in all cases: cell-based or functional assay
Carboxypeptidase = target: Carboxypeptidase
Chymotrypsin = target: Chymotrypsin
Papain = target: T1, Papain (UniProt P00784 134-345)
T1 sequence (looked up): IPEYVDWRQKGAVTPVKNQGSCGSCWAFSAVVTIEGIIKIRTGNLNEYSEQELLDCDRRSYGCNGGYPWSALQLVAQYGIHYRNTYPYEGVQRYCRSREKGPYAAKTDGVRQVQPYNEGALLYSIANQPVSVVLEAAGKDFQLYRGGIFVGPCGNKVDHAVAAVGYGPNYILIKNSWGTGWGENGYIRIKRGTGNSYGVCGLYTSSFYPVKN

% Inhibition of Proteolysis by Rev4 at 2.5 µg/ml (Carboxypeptidase): 58%
% Inhibition of Proteolysis by Rev4 at 5 µg/ml (Carboxypeptidase): 92%
% Inhibition of Proteolysis by Rev4 at 10 µg/ml (Carboxypeptidase): 100%
% Inhibition of Proteolysis by Rev4 at 20 µg/ml (Carboxypeptidase): 100%
% Inhibition of Proteolysis by Rev4 at 2.5 µg/ml (Chymotrypsin): 16%
% Inhibition of Proteolysis by Rev4 at 5 µg/ml (Chymotrypsin): 42%
% Inhibition of Proteolysis by Rev4 at 10 µg/ml (Chymotrypsin): 75%
% Inhibition of Proteolysis by Rev4 at 20 µg/ml (Chymotrypsin): 97%
% Inhibition of Proteolysis by Rev4 at 2.5 µg/ml (Papain): 29%
% Inhibition of Proteolysis by Rev4 at 5 µg/ml (Papain): 72%
% Inhibition of Proteolysis by Rev4 at 10 µg/ml (Papain): 93%
% Inhibition of Proteolysis by Rev4 at 20 µg/ml (Papain): 99%
B1: Rev4 (reverse indolicidin), C-terminal amide form (peptide)
peptide: RRWPWWPWKWPLI-NH2
